The text below walks through data of paper PMC3903776, “Structural Characterization of the Mechanosensitive Channel Candidate MCA2 from Arabidopsis thaliana” (PLoS ONE, 2014).

The data set concerns the molecule itself. As to the kind of experiment: cross-linking; purified MCA2-6H in PBS with 4% APFO; 10 mM glutaraldehyde, room temperature, up to 30 min, stopped with 50 mM Tris-HCl pH 8.0; reducing SDS-PAGE, CBB staining.

B1: MCA2-6H (Arabidopsis thaliana MCA2 with a 6xHis tag fused to the carboxyl terminus) (natural protein, UniProt Q3EBY6 1-416, looked up)
chain: MANSWDQLGEIASVAQLTGIDALKLIGMIVNAANTARMHKKNCRQFAHHLKLIRNLLEQIKNSEMNQRSEILEPLQGLDDALRRSYILVKSCQEKSYLYLLAMGWNIVNQFEKAQNEIDLFLKIVPLINMADNARIRERLEAIERDQREYTLDEEDRKVQDVILKQESTREAATSVLKKTLSRSYPNMGFCEALKTEEEKLQLELQRSRARYDADQCEVIQRLIDVTQTAATVEPNLEKVLTKKEELTSSKKRDDLYDTDSSSIRADSRSTSYVSSGHELLSGRSLQHRGNWHADLLDCCSEPCLCLKTLFFPCGTLAKISTVATSRQISSTEVCKNLIVYSLILSCCCYTCCIRKKLRKTLNITGGCIDDFLSHLMCCCCALVQELREVEIHRASYGTEKSNKEMSPPTPQFMEE
notes: MCA2 of Arabidopsis thaliana, 416 amino acid residues; source: Sf9 cells, baculovirus (Bac-to-Bac), membrane fraction solubilised in APFO, purified (His GraviTrap, Superdex 200 SEC); not shown: 6xHis, C-terminal, kept
A word on the stoichiometry N: it is the number of molecules, sites or subunits per partner or assembly. With B1, the “stoichiometry N” value is 4.
